Reference: ChEMBL document CHEMBL4706520, “Development of disulfide-derived fructose-1,6-bisphosphatase (FBPase) covalent inhibitors for the treatment of type 2 diabetes” (Eur J Med Chem, 2020)

Compound: c1csc(SSc2nccs2)n1
Test: Covalent inhibition of FBPase WT (unknown origin) assessed as Vmax measured at 45 mins
Conditions: Homo sapiens

B1: Fructose-1,6-bisphosphatase 1 (Homo sapiens), P09467 (protein)
chain: MADQAPFDTDVNTLTRFVMEEGRKARGTGELTQLLNSLCTAVKAISSAVRKAGIAHLYGIAGSTNVTGDQVKKLDVLSNDLVMNMLKSSFATCVLVSEEDKHAIIVEPEKRGKYVVCFDPLDGSSNIDCLVSVGTIFGIYRKKSTDEPSEKDALQPGRNLVAAGYALYGSATMLVLAMDCGVNCFMLDPAIGEFILVDKDVKIKKKGKIYSLNEGYARDFDPAVTEYIQRKKFPPDNSAPYGARYVGSMVADVHRTLVYGGIFLYPANKKSPNGKLRLLYECNPMAYVMEKAGGMATTGKEAVLDVIPTDIHQRAPVILGSPDDVLEFLKVYEKHSAQ
Vmax: 4 U/mg
